From US20260193356A1 (BIOCYTOGEN PHARMACEUTICALS BEIJING, published 2026)

T1: His-tagged human B7-H2 protein (hB7-H2-his, ACROBiosystems Inc., Cat #: B72-H5221) (human, UniProt O75144 19-258)
T1 construct: Bought protein; not shown: His tag
T1 sequence (looked up): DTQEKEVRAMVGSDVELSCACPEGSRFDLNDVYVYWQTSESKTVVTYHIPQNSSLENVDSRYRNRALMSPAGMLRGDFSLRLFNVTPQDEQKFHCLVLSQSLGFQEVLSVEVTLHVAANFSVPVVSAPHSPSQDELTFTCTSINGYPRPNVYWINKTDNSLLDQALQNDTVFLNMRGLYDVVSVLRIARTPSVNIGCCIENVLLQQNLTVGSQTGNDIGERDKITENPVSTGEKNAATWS

T2: His-tagged human PDL2 protein (hPDL2-his, ACROBiosystems Inc., Cat #: PD2-H5220) (human, UniProt Q9BQ51 20-219)
T2 construct: Bought protein; not shown: His tag
T2 sequence (looked up): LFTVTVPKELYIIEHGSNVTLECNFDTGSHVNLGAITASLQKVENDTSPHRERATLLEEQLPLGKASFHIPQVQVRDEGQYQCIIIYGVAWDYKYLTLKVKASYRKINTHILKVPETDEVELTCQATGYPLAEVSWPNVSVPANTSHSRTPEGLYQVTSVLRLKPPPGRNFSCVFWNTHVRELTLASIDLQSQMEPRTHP

T3: His-tagged human B7-H3 protein (hB7-H3-his, ACROBiosystems Inc., Cat #: B73-H52E2) (human, UniProt Q5ZPR3-2 29-245)
T3 construct: Bought protein; not shown: His tag
T3 sequence (looked up): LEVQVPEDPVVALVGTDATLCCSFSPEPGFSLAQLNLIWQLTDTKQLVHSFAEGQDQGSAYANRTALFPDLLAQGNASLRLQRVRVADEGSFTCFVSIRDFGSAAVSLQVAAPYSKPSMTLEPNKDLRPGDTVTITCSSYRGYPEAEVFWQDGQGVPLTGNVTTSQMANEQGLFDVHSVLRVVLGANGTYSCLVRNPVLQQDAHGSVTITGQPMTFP

T4: His-tagged human B7-1 protein (hB7-1-his, Kactus, Cat #: B71-HM480) (human, UniProt P33681 35-242)
T4 construct: Bought protein; not shown: His tag
T4 sequence (looked up): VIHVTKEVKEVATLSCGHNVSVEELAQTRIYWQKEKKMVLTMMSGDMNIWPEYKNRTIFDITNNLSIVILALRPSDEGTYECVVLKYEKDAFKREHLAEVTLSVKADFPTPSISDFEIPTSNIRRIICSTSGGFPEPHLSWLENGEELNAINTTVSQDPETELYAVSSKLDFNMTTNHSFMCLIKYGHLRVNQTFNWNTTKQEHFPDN


Legend:
[1] = target: human PDL1 on helper cells CHO-aAPC-hPDL1 (Promega, Cat #: J1081) (human, UniProt Q9NZQ7 19-290); experiment: cell-based or functional assay
[2] = target: T5, mouse (Mus musculu) PDL1 (mPDL1) expressed on CHO-S cells (CHO-S-mPDL1) (mouse, UniProt Q9EP73 19-290); experiment: flow cytometry on CHO-S-mPDL1 cells; antibody 0.1 µg/mL
Procedure: (§1) Then, after one wash with PBS, the cells were incubated with the secondary antibody anti-hIgG-Fc-Alex Flour 647 (RL1-H) (Jackson ImmunoResearch Laboratories, Inc., 109-606-170) at 4° C. for 15 minutes before flow cytometry analysis.

[3] = target: T6, monkey (Macaca fascicularis) PDL1 (fasPDL1) expressed on CHO-S cells (CHO-S-fasPDL1) (monkey (Macaca fascicularis), UniProt Q9NZQ7 19-290 (human entry)); experiment: flow cytometry on CHO-S-fasPDL1 cells; antibody 0.1 µg/mL
Procedure: as §1

[4] = target: T5, mouse (Mus musculu) PDL1 (mPDL1) …; experiment: flow cytometry on CHO-S-mPDL1 cells; antibody 1 µg/mL
Procedure: as §1

[5] = target: T7, His-tagged Macaca fascicularis PDL1 protein (fasPDL1-his, ACROBiosystems Inc., Cat #: PD1-C52H4) (Macaca fascicularis, UniProt Q9NZQ7 19-238 (human entry)); experiment: SPR Biacore 8K, antibody captured on Protein A chip, His-tagged antigen as analyte, 1:1 model
T7 construct: Bought protein; also called monkey PDL1; not shown: His tag
Procedure: (§2) Dissociation was monitored for 400 seconds. The chip was regenerated after the last injection of each titration with Glycine (pH 2.0, 30 μL/min for 30 seconds).

[6] = target: T8, His-tagged mouse PDL1 protein (mPDL1-his, ACROBiosystems Inc., Cat #: PD1-M5220) (mouse, UniProt Q9EP73 19-238); experiment: as above
T8 construct: Bought protein; not shown: His tag
Procedure: as §2

[7] = target: T9, His-tagged human PDL1 protein (hPDL1-his, ACROBiosystems Inc., Cat #: PD1-H5229) (human, UniProt Q9NZQ7 19-238); experiment: as above
T9 construct: Bought protein; not shown: His tag
Procedure: as §2

[8] = target: T10, human PDL1 (hPDL1) expressed on CHO-S cells (CHO-S-hPDL1) (human, UniProt Q9NZQ7 19-290); experiment: flow cytometry on CHO-S-hPDL1 cells; antibody 1 µg/mL
Procedure: as §1

[9] = target: T1, His-tagged human B7-H2 protein …; experiment: SPR Biacore 8K, antibody captured on Protein A chip, His-tagged antigen as analyte
Procedure: (§3) The His-tagged antigen protein at a concentration of 200 nM was then injected at 30 μL/min for 180 seconds. Dissociation was monitored for 400 seconds. The chip was regenerated after the last injection of each titration with Glycine (pH 2.0, 30 μL/min for 30 seconds).

[10] = target: T2, His-tagged human PDL2 protein …; experiment: as above
Procedure: as §3

[11] = target: T3, His-tagged human B7-H3 protein …; experiment: as above
Procedure: as §3

[12] = target: T4, His-tagged human B7-1 protein …; experiment: as above
Procedure: as §3

[13] = target: T10, human PDL1 (hPDL1) expressed on CHO-S …; experiment: flow cytometry on CHO-S-hPDL1 cells; antibody 0.1 µg/mL
Procedure: as §1

[14] = target: T6, monkey (Macaca fascicularis) PDL1 …; experiment: flow cytometry on CHO-S-fasPDL1 cells; antibody 1 µg/mL
Procedure: as §1

T5 sequence (Q9EP73 19-290 limits assumed): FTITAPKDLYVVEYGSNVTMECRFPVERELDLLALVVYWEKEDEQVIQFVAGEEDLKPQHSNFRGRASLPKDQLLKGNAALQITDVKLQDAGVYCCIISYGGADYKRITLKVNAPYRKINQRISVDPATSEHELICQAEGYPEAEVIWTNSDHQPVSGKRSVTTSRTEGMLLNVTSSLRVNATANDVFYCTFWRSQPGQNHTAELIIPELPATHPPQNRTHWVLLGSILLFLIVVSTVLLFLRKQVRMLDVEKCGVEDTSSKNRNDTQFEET
T8 sequence (Q9EP73 19-238 limits assumed): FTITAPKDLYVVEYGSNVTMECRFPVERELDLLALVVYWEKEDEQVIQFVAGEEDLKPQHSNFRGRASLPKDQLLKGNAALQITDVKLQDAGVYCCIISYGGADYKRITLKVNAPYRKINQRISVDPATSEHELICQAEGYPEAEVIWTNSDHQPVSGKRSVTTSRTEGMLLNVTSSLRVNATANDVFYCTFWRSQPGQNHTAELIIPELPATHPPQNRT
T7 sequence (Q9NZQ7 other isoform, or with tags, fused parts or gaps limits assumed): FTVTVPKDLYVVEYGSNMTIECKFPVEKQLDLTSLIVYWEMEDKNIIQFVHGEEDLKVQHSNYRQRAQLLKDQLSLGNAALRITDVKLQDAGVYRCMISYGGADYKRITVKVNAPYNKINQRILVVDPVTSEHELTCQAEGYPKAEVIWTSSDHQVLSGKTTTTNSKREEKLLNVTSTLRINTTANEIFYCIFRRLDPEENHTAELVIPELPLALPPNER
T6 sequence (Q9NZQ7 other isoform, or with tags, fused parts or gaps limits assumed): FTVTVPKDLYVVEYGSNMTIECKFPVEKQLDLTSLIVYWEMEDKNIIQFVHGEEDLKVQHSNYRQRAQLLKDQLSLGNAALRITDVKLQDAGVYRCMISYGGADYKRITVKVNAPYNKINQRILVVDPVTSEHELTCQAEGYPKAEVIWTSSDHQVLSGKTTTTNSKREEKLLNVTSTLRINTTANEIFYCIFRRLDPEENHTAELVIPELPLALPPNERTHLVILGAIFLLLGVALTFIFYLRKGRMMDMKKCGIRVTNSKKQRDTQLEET
T10 sequence (Q9NZQ7 19-290 limits assumed): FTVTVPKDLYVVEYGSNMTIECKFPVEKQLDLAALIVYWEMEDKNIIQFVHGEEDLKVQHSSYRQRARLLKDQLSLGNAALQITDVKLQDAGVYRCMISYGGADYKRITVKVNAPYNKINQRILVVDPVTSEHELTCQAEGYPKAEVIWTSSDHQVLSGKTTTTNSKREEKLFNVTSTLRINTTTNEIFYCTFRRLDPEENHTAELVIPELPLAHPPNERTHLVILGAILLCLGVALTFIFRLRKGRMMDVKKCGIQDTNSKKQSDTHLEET
Chain of human PDL1 on helper cells CHO-aAPC-hPDL1 (Promega, Cat #: J1081) (Q9NZQ7 19-290 limits assumed): as above
T9 sequence (Q9NZQ7 19-238 limits assumed): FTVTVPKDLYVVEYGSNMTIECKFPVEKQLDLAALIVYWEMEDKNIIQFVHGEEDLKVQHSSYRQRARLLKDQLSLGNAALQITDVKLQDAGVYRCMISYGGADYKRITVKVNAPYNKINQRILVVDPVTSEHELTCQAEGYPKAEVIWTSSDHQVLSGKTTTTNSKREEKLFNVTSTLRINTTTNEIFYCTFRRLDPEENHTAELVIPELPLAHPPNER

IC50 (µg/mL), Blockade of the binding of PDL1 and PD-1 (luciferase, CHO-aAPC-hPDL1 + Jurkat-Luc-hPD1 cells) [1] [µg/mL]	Percentage of Positive Cells (%) [2] [%]	Percentage of Positive Cells (%) [3] [%]	Percentage of Positive Cells (%) [4] [%]	Kd [5] [nM]	koff [5] [s⁻¹]	kon [5] [M⁻¹ s⁻¹]	Kd [6] [nM]	koff [6] [s⁻¹]	kon [6] [M⁻¹ s⁻¹]	Kd [7] [nM]	koff [7] [s⁻¹]	kon [7] [M⁻¹ s⁻¹]	Percentage of Positive Cells (%) [8] [%]	binding result [9]	binding result [10]	binding result [11]	binding result [12]	Percentage of Positive Cells (%) [13] [%]	Percentage of Positive Cells (%) [14] [%]	Binder
1.14	65.2	65	75.2	5.77	0.00156	271000	8.04	0.00187	232000	8.65	0.00167	193000	83.2	no binding (tested: 200 nM)	no binding (tested: 200 nM)	no binding (tested: 200 nM)	no binding (tested: 200 nM)	65.8	70.2	B21A06-N297A (antibody, human IgG1, V domains shown) VH: QVQLQESGGDVVQPGRSLRLSCAASGFTFNNYGMHWVRQAPSKGLEWVAFIWYDGSNKYYGDSVKGRFTISRDNSKNTLYLQMNSLRAEDTALYYCARGDNWNSDAFDIWGPGTMVTVSS VL: EIVMTQSPLSLPVTLGQPASISCRSSQSLVYTNGNTYLNWFQQRPGQSPRRLIYKVSSRDSGVPDRFSGSGSGTDFTLKISRVAAEDVGLYYCMQGTHWPLTFGGGTKVEIK
0.789	67.8	64.2	79	2.95	0.000612	207000	41.5	0.00955	230000	4.6	0.000721	157000	83.1	no binding (tested: 200 nM)	no binding (tested: 200 nM)	no binding (tested: 200 nM)	no binding (tested: 200 nM)	69.9	72	B20A09-N297A (antibody, V domains shown) VH: QVQLQQSGPGLVKPSQTLSLTCAISRDGVSNISGAWNWIRQSPSRGLEWLGRTYYRAMWYKDYALSVKSRITINPDTSKNQFSLQLNSVTPEDTAVYYCAREEYSRGWGAFDIWGQGTMVTVSS VL: not shown
1.13	70.6	65.9	87.3	0.672	0.000146	217000	1.28	0.000168	131000	1.16	0.000184	159000	89.3	no binding (tested: 200 nM)	no binding (tested: 200 nM)	no binding (tested: 200 nM)	no binding (tested: 200 nM)	69	79.8	B20B02-N297A (antibody, human IgG1, V domains shown) VH: QVQLQQSGGGVVQPGRSLRLSCAASGFTFSTYGMHWVRQAPGKGLEWVAALSFDGGNIYYGDSVKGRFTISRDNSKNTLYLQMNSLRAEDTALYYCAKARLPYSYDAVDYWGQGTLVTVSS VL: EIVMTQSPATLSVSPGERATLSCRASQSVSSNLAWYQQKPGQAPRLLIYDTSTRAIGIPARFSGSGSGTEFTLTISSLQSEDFAIYYCHQYNFWPPITLGQGTRLEIK
0.745	66.1	66.9	77.1	0.765	0.000331	432000	17.6	0.00152	86200	1.29	0.000411	318000	87.1	no binding (tested: 200 nM)	no binding (tested: 200 nM)	no binding (tested: 200 nM)	no binding (tested: 200 nM)	72.2	74.4	B22E02-N297A (antibody, human IgG1, V domains shown, Human IgG1 with N297A (EU numbering) in the Fc) VH: QVQLVQSGGGLVQPGRSLRLSCRASGFTFDGYSMNWVRQAPGKGLEWVGFIRSKGYGGTSESAASVKGRFTISRDDSKSIAYLQMNSLKTEDTAVYYCTRTRNWNDEGYFDYWGLGTLVTVSS VL: DIQMTQSPSSLSASVGDRVTITCQASQDINKYLNWYQQKPGKAPKLLIYDASNSETGVPSRFSGSGSGTDFTFTISSLQPEDISTYYCQQYDILPITFGQGTRLEIK
